Source: US6689868 (Dana-Farber, dated 2004)

B1: LexA-CD2 tail truncation construct M (other, UniProt P0A7C2 1-202, looked up)
chain: MKALTARQQEVFDLIRDHISQTGMPPTRAEIAQRLGFRSPNAAEEHLKALARKGVIEIVSGASRGIRLLQEEEEGLPLVGRVAAGEPLLAQQHIEGHYQVDPSLFKPNADFLLRVSGMSMKDIGIMDGDLLAVHKTQDVRNGQVVVARIDDEVTVKRLKKQGNKVELLPENSEFKPIVVDLRQQSFTIEGLAVGVIRNGDWLNDEELETRAHRVATEERGRKPHQIPASTPQNPATSQHPPPPPGHRSQAPSHRPPPPGHRVQHQPQKR
B2: human CD58 (on transfected CHO cells) (ligand, UniProt P19256 29-250, looked up)
chain: FSQQIYGVVYGNVTFHVPSNVPLKEVLWKKQKDKVAELENSEFRAFSSFKNRVYLDTVSGSLTIYNLTSSDEDEYEMESPNITDTMKFFLYVLESLPSPTLTCALTNGSIEVQCMIPEHYNSHRGLIMYSWDCPMEQCKRNSTSIYFKMENDLPQKIQCTLSNPLFNTTSSIILTTCIPSSGHSRHRYALIPIPLAVITTCIVLYMNGILKCDRKPDRTNSN
notes: whole, on cells; also called CD58 ligand; human CD58-transfected CHO cells
B3: LexA-CD2 cytoplasmic tail fusion (CD2 bait, aa 221-327) in pEG202 (other, UniProt P0A7C2 1-202, looked up)
chain: MKALTARQQEVFDLIRDHISQTGMPPTRAEIAQRLGFRSPNAAEEHLKALARKGVIEIVSGASRGIRLLQEEEEGLPLVGRVAAGEPLLAQQHIEGHYQVDPSLFKPNADFLLRVSGMSMKDIGIMDGDLLAVHKTQDVRNGQVVVARIDDEVTVKRLKKQGNKVELLPENSEFKPIVVDLRQQSFTIEGLAVGVIRNGDWLNDEELETRAHRVATEERGRKPHQIPASTPQNPATSQHPPPPPGHRSQAPSHRPPPPGHRVQHQPQKRPPAPSGTQVHQQKGPPLPRPRVQPKPPHGAAENSLSPSSN
notes: The CD2 aa numbers (tail ends at 327) appear to count on mature CD2, not on the precursor; also called CD2 tail; pEG202/CD2
B4: B42-SH334 (SH3 domain of CD2BP1 plus 34 N-terminal amino acids) (other, not shown: large carriers)
chain: ASAASTETLTPTPERNEGVYTAIAVQEIQGNPASPAQEYRALYDYTAQNPDELDLSAGDILEVILEGEDGWWTVERNGQRGFVPGSYLEKL
B5: LexA-CD2 tail truncation construct N (other, UniProt P0A7C2 1-202, looked up)
chain: MKALTARQQEVFDLIRDHISQTGMPPTRAEIAQRLGFRSPNAAEEHLKALARKGVIEIVSGASRGIRLLQEEEEGLPLVGRVAAGEPLLAQQHIEGHYQVDPSLFKPNADFLLRVSGMSMKDIGIMDGDLLAVHKTQDVRNGQVVVARIDDEVTVKRLKKQGNKVELLPENSEFKPIVVDLRQQSFTIEGLAVGVIRNGDWLNDEELETRAHRVATEERGRKPHQIPASTPQNPATSQHPPPPPGHRSQAPS

Key:
[1] = molecular target: T1, B42-CD2BP1L fusion (CD2BP1L in pJG4-5) (human, UniProt O43586 1-416); assay: yeast two-hybrid, lacZ induction
T1 sequence: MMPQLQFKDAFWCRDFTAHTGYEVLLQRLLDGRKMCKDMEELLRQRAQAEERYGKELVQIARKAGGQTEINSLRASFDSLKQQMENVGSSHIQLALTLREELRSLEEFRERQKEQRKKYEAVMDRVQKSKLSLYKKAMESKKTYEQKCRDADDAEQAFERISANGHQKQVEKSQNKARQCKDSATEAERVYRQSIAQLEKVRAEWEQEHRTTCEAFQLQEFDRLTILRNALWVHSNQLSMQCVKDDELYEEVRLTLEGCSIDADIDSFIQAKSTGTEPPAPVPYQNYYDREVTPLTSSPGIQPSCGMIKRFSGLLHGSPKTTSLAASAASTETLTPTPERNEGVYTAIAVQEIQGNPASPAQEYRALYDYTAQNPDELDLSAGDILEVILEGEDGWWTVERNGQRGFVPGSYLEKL
Experimental: (§1) These tail variants were tested in the yeast two-hybrid system for their interaction with CD2BP1L or CD2BP1S as well as CD2BP1 truncations. In FIG. 7, open bars represent the region of CD2BP1 sequence with homology to yeast cdc15 protein aa 116–277; solid bars represent PEST rich regions in the CD2BP1 sequences; and hatched bars represent the SH3 domain in the CD2BP1 sequences. CD2BP1S/ΔSH3 represents CD2BP1 lacking the SH3 domain. $SH334$ includes the entire SH3 domain of CD2BP1 and 34 N-terminal amino acids. $SH366$ includes the SH3 domain of CD2BP1S and 66 N-terminal amino acids. $SH383$ includes the SH3 domain of CD2BP1L and 83 N-terminal amino acids of CD2BP1L. SH^3GGGGS includes the entire SH3 domain of CD2BP1 and an artificial N-terminal linker consisting of the residues shown.
(§2) The strength of the interaction between the CD2 variants and the CD2BP1 constructs was determined by lacZ induction.

[2] = molecular target: T2, B42-CD2BP1S fusion (CD2BP1S in pJG4-5) (human, UniProt O43586 1-416); assay: yeast two-hybrid, lacZ induction
T2 construct: also called clone #48; CD2BP1S/pJG4-5
T2 sequence: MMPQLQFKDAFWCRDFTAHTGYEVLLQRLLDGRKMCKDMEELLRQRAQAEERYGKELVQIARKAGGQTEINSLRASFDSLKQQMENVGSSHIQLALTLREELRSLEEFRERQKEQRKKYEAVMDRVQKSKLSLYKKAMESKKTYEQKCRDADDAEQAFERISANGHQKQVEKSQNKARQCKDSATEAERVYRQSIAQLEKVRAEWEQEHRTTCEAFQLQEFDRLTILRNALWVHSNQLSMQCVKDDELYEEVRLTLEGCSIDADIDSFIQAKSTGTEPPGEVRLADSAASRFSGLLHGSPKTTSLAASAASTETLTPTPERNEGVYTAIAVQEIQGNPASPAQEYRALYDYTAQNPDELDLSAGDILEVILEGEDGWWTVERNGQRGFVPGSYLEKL
Experimental: as §1, §2

[3] = molecular target: T3, B42-CD2BP1S/ΔSH3 (CD2BP1S truncation construct lacking the terminal SH3 domain) (human, UniProt O43586 1-359); assay: yeast two-hybrid, lacZ induction
T3 sequence: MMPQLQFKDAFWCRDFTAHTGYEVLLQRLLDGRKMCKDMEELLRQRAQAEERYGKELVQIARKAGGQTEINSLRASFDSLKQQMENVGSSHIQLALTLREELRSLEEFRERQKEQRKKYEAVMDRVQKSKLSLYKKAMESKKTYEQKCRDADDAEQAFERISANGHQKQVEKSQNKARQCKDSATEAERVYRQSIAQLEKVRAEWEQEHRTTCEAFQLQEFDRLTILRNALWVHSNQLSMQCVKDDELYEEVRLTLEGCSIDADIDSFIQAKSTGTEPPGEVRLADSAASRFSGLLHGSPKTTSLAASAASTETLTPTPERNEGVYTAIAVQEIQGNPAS
Experimental: as §1, §2

[4] = molecular target: T4, human CD2 (wild-type, full length) (human, UniProt P06729 25-351); assay: cell-cell conjugates of activated human T cells with CD58-transfected CHO cells, immunofluorescence
T4 construct: whole, on cells; In pull-downs and immunoprecipitations it stood in Triton X-100 cell lysates; in staining and rosetting on the cell surface; also called wtCD2; hCD2wt (W33)
T4 sequence (looked up): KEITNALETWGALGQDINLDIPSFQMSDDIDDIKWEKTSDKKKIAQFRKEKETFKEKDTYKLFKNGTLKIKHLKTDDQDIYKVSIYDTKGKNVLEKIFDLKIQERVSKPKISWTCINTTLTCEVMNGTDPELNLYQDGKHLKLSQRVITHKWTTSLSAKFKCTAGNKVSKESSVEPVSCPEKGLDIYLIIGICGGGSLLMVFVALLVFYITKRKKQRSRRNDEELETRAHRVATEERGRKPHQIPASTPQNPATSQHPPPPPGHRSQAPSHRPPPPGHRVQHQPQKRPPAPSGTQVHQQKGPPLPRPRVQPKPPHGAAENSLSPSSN
Experimental: For image analysis of the CD2BP1 association with CD2, CD2 molecules on the activated T cell surface were induced to cluster by either a pair of anti-CD2 antibodies (anti-T11_2 plus anti-T11_3) or by CD58 ligand directed CD2 relocalization. For antibody crosslinking, activated T cells were incubated with anti-T11_2 mAb (5 μg/ml) and direct Texas red labeled anti-T11_3 mAb (1:50) in FACS buffer at 4° C. for 30 min, followed by two washes with FACS buffer and fixation by incubation in 2% paraformaldehyde/PBS. The cells were then permeabilized and stained with directly FITC-labeled anti-CD2BP1 mAb, followed by fluoroimaging analysis as described above. For ligand induced surface CD2 relocalization, activated T cells were incubated with CD58 transfected CHO cells prebound to coverslips to induce cellular conjugate formation as described previously (Li et al., 1996). After washing off the non-conjugated T cells and fixation in 1% parafornaldehyde, the conjugates were stained with anti-T11_3 antibody (1:50) at 4° C. for 30 min, followed by washing, permeabilization and staining with anti-CD2BP1 antibody as described above. The stained conjugates on the coverslips were then subject to fluoroimaging analysis. […]

[5] = molecular target: T2, B42-CD2BP1S fusion (CD2BP1S in pJG4-5); assay: yeast two-hybrid (LexA-CD2 tail variant / B42-CD2BP1 construct), lacZ induction
Experimental: as §1, §2

[6] = molecular target: B5; assay: yeast two-hybrid, lacZ induction
Experimental: as §1, §2

[7] = molecular target: B1; assay: yeast two-hybrid, lacZ induction
Experimental: as §1, §2

B1
binding result [1]: no binding
binding result [2]: no binding
binding result [3]: no binding

B2
binding result [4]: binds

B3
binding result [1]: binds
binding result [3]: no binding
binding result [5]: binds

B4
binding result [6]: no binding
binding result [7]: no binding

B5
binding result [1]: no binding
binding result [2]: no binding
binding result [3]: no binding
